According to article PMC6995776 (Journal of molecular biology, 2019):

Assays:
Assay in all cases: ITC
[1] = biological target: T1, TbPRMT1 ENZ-PRO complex (wild type) (Trypanosoma brucei, UniProt Q4GYA9 1-345)
[2] = biological target: TbPRMT1 ENZ-Δ21PRO complex (Trypanosoma brucei, UniProt Q4GYA9 1-345)
[3] = biological target: TbPRMT1 ENZ-Δ31PRO complex (Trypanosoma brucei, UniProt Q4GYA9 1-345)
[4] = biological target: TbPRMT1 ENZ-Δ45PRO complex (Trypanosoma brucei, UniProt Q4GYA9 1-345)
[5] = biological target: T1, TbPRMT1 ENZ-PRO complex (wild type); remark: listed apart in the source

B1: Maltose Binding Protein (MBP)-fused TbRGG1 (natural protein)
chain: MVCSTICLFQRGQWGNEGSRGDQRNYDNRGGRGEWGDRGGQRGDNQRDYGDQRNYDNRGGRGEWGDRGGQRGDNQRDYGDQRNYDNRGGRGEWGDRGGQRGDNQRDYGDQRNYDNRGGRGEWGDRGGQRGDNQRDYGDQRNYDNRGGRGEWGDRGGQRGDNQRDYGDQRNYDNRGGRGEWGDRGGQRGDNQRNYDNRGGRGEWGDRGGQRGGNQRDNSNQFGYRNERDGGIGRQRSARDNFGAHDNRASDERGSTDPAVGEVFDEQAAKILYELKRRFKSSKTGKERRDVQREARRIVRRARVDPSTQDEKSVTLLLNCAATFRCYPHTEGIKQATEWMRKNIDGLSPQNVALFTNAIGALSVVDSDTILINEISPAVEACYGQMNPVELVMTLQAFQRGRITENEDLQVSLLQQLVTCVPQMPAPQLSTLAGVLVDTPLRKRDEATWQEIAKTVVSKAASGAENMHSREVITLLKATPRLGVPEDHSFHLVDRAIATVGFHTDEQIGELLEAVSYYRDPQKTCGRELNEKLDKLVDALWARLQKVAPFADAASVTTIMRAAHRSGVDVPRDIVSTLVQAVMRELRYHRFTFRRVASLSEALALQKVPAKELLVMLGDYCIGKRPPREERGENTPVDDHNSGIEERMDIYARFLGDLTKARIALENAHSSNAGNGEPGSSVSQILAQRLEDSVGSAPPRELLKSVRAICTAADDCPFRNRANDGKIIALSEQRIAKEGASFMEGVRKTTMENFLSAVSGIPQAQKVVEVLSHQTR
For B1, the “stoichiometry N” value [1] was 1, the Kd [2] was 36 µM and the Kd [3] was 86 µM. It also gave a Kd [4] of 160 µM and a Kd [5] of 9 µM.
